Tests used:
[1] = tested on: polarized colon cancer T84 cells; experiment: Transepithelial electrical resistance (TEER) on polarized T84 cells; type: cell-based; settings: for Effect on the TEER: added for 1 hour to the apical side of transwell cultures; for TEER compared to JO-1: dimeric affinity-enhanced mutants, TEER at 4 hours
Protocol: (§1) FIG. 5A-5B. Correlation of reduced DSG2 binding with the ability to open epithelial junctions. FIG. 5A) Transepithelial electrical resistance (TEER) measured on polarized colon cancer T84 cells. Cells were cultured in transwell chambers until the TEER was constant, i.e. tight junctions had formed. A total of 5 μg of dimeric Ad3 fiber knobs in PBS was then added for 1 hour to the apical chamber. TEER was measured at the indicated time points. N=6. For time points 1.5 and 4 hours the difference between JO-1 vs D261N and N186D was significant (p<0.01). The arrows indicate the addition and removal of Ad3 fiber knobs. FIG. 5B) Enhancement of irinotecan therapy. A total of 4×10^6 A549 cells were injected subcutaneously into CB17-SCID/beige mice. Once the tumor reached a volume of ˜100 mm^3 (day 15 after implantation), the mice were injected intravenously with 2 mg/kg JO-1, E299V, N186D, or PBS, followed by an intravenous injection of irinotecan (37.5 mg/kg) one hour later. The treatment was repeated on day 25. N=5. […] The difference between “irinotecan” vs “JO-1+irinotecan” was significant (p<0.01) from day 20 on.
FIG. 9A1-9C. Analysis of dimeric Ad3 fiber knob mutants with increased affinity to DSG2. FIG. 9A1-9A2) Competition of Ad3-GFP virus infection on HeLa cells with dimeric affinity-enhanced mutant Y250F and JO-1 (dimeric wt Ad3 fiber knob). The experimental setting is as described for FIG. 3C. FIG. 9A1) percentage of GFP positive cells. FIG. 9A2) mean fluorescence intensity. N=3. The standard deviation was less than 10%. FIG. 9B1-9B2) Competition of Ad3-GFP virus infection on HeLa cells by Ad3 knob mutants with enhanced DSG2 binding but without dimerization domain. 1.5×10^5 HeLa cells were seeded into 24 well plates. Cells were incubated with the Ad3 knob mutants at the increasing concentrations for one hour at room temperature. 100 pfu/cell of Ad3GFP virus were then added and GFP expression was analyzed 18 hours later. FIG. 9B1) % of GFP+cells; FIG. 9B2) MFI. FIG. 9C) TEER on colon cancer T84 cells. The experimental setting was the same as for FIG. 5A. The TEER at 4 hours is shown. N=3.
Permeability assay. A total of 5×10^5 T84 cells were seeded in 12 mm transwell inserts (PET membrane, with 0.4 μm pore size (Corning, NY) and cultured for >14 days until transepithelial electrical resistance (TEER) was stable. Culture medium was changed every 2-3 days. The cells were exposed to DSG2 ligands (20 μg/ml) in adhesion medium (DMEM, 1% FBS, 2 mM MgCl2, 20 mM HEPES) for 15 min at room temperature and TEER was measured and calculated as described elsewhere (39).

A549 xenograft tumors = experiment: Enhancement of irinotecan therapy in A549 xenograft tumors; type: in vivo, CB17-SCID/beige mice; settings: 2 mg/kg i.v. one hour before irinotecan 37.5 mg/kg i.v.; tumor volume
Protocol: as §1
FIG. 10A-10C. Combination of affinity-enhanced JO-1 versions with chemotherapy. FIG. 10A) Enhancement of irinotecan (I) therapy. The experimental setting was the same as in FIG. 5B. […] N=5. […] Mammary fat pad tumors were established from primary ovarian cancer ovc316 cells. Treatment was started when tumors reached a volume of 100 mm^3. Mice were injected intravenously with 2 mg/kg JO-1 or with 0.5 mg/kg JO-4, followed by an intravenous injection of PEGylated liposomal doxorubicin (PLD) (1 mg/kg) one hour later. Treatment was repeated weekly. […] A total of 4×10^6 TNBC MDA-MB-231 cells were injected into the mammary fat pad of CB17 SCID-beige mice. JO-4 (2 mg/kg) was intravenously injected 1 hour before the application of cetuximab (C) (10 mg/kg, i.p.) and nab-paclitaxel (nab-P) (5 mg/kg, i.v.). Treatment was given weekly. N=10 P<0.01 at day 25 for nab-P+C vs JO-4+nab-P+C.
A549, MDA-MB-231, and ovc316 xenograft tumors were established by injection of the corresponding tumor cells into the mammary fat pad (1:1 with Matrigel) of CB17 mice. TC1-DSG2 tumors were established by subcutaneous injection of TC1-DSG2 cells into DSG2 transgenic mice. JO-0, JO-1, JO-2, or JO-4 were intravenously injected one hour before the application of chemotherapeutic drugs: Irinotecan/Camptosar™ (Pfizer Inc., Groton, CT), PEGylated liposomal doxorubicin/Lipodox™ (Sun Pharmaceuticals IN, India), cetuximab/Erbitux™ (ImClone, Somerville, NJ), nanoparticle albumin conjugated paclitaxel/Abraxane” (Abraxis Biosciences, Summit, NJ). Tumor volumes were measured three times a week. Each treatment group consisted of a minimum of 5 mice.

Row | Molecule | Effect on the TEER [1] | Enhancement of irinotecan therapy (A549 xenograft tumors) | TEER compared to JO-1 [1]
1 | N186D (protein) MKVSALKEKVSALKEKVSALKEKVSALKEKVSALKEGSGGGSGGGSGGGSNSIALKNNTLWTGPKPEANCIIEYGKQNPDSKLTLILVKNGGIVNGYVTLMGASDYVNTLFKDKNVSINVELYFDATGHILPDSSSLKTDLELKYKQTADFSARGFMPSTTAYPFVLPNAGTHNENYIFGQCYYKASDGALFPLEVTVMLNKRLPDSRTSYVMTFLWSLNAGLAPETTQATLITSPFTFSYIREDD | intermediate effects | not significant | –
2 | K217E+F224S (protein) MKVSALKEKVSALKEKVSALKEKVSALKEKVSALKEGSGGGSGGGSGGGSNSIALKNNTLWTGPKPEANCIIEYGKQNPDSKLTLILVKNGGIVNGYVTLMGASDYVNTLFKNKNVSINVELYFDATGHILPDSSSLKTDLELEYKQTADSSARGFMPSTTAYPFVLPNAGTHNENYIFGQCYYKASDGALFPLEVTVMLNKRLPDSRTSYVMTFLWSLNAGLAPETTQATLITSPFTFSYIREDD | – | – | significantly higher
3 | E299V (protein) MKVSALKEKVSALKEKVSALKEKVSALKEKVSALKEGSGGGSGGGSGGGSNSIALKNNTLWTGPKPEANCIIEYGKQNPDSKLTLILVKNGGIVNGYVTLMGASDYVNTLFKNKNVSINVELYFDATGHILPDSSSLKTDLELKYKQTADFSARGFMPSTTAYPFVLPNAGTHNENYIFGQCYYKASDGALFPLEVTVMLNKRLPDSRTSYVMTFLWSLNAGLAPVTTQATLITSPFTFSYIREDD | intermediate effects | not significant | –
4 | V239D (protein) MKVSALKEKVSALKEKVSALKEKVSALKEKVSALKEGSGGGSGGGSGGGSNSIALKNNTLWTGPKPEANCIIEYGKQNPDSKLTLILVKNGGIVNGYVTLMGASDYVNTLFKNKNVSINVELYFDATGHILPDSSSLKTDLELKYKQTADFSARGFMPSTTAYPFDLPNAGTHNENYIFGQCYYKASDGALFPLEVTVMLNKRLPDSRTSYVMTFLWSLNAGLAPETTQATLITSPFTFSYIREDD | – | – | significantly higher
